Source: IntAct's records for PubMed 18441008

B1: Peroxisome proliferator-activated receptor gamma coactivator 1-alpha (Homo sapiens), Q9UBK2 (parent)
chain: MAWDMCNQDSESVWSDIECAALVGEDQPLCPDLPELDLSELDVNDLDTDSFLGGLKWCSDQSEIISNQYNNEPSNIFEKIDEENEANLLAVLTETLDSLPVDEDGLPSFDALTDGDVTTDNEASPSSMPDGTPPPQEAEEPSLLKKLLLAPANTQLSYNECSGLSTQNHANHNHRIRTNPAIVKTENSWSNKAKSICQQQKPQRRPCSELLKYLTTNDDPPHTKPTENRNSSRDKCTSKKKSHTQSQSQHLQAKPTTLSLPLTPESPNDPKGSPFENKTIERTLSVELSGTAGLTPPTTPPHKANQDNPFRASPKLKSSCKTVVPPPSKKPRYSESSGTQGNNSTKKGPEQSELYAQLSKSSVLTGGHEERKTKRPSLRLFGDHDYCQSINSKTEILINISQELQDSRQLENKDVSSDWQGQICSSTDSDQCYLRETLEASKQVSPCSTRKQLQDQEIRAELNKHFGHPSQAVFDDEADKTGELRDSDFSNEQFSKLPMFINSGLAMDGLFDDSEDESDKLSYPWDGTQSYSLFNVSPSCSSFNSPCRDSVSPPKSLFSQRPQRMRSRSRSFSRHRSCSRSPYSRSRSRSPGSRSSSRSCYYYESSHYRHRTHRNSPLYVRSRSRSPYSRRPRYDSYEEYQHERLKREEYRREYEKRESERAKQRERQRQKAIEERRVIYVGKIRPDTTRTELRDRFEVFGEIEECTVNLRDDGDSYGFITYRYTCDAFAALENGYTLRRSNETDFELYFCGRKQFFKSNYADLDSNSDDFDPASTKSKYDSLDFDSLLKEAQRSLRR
partner: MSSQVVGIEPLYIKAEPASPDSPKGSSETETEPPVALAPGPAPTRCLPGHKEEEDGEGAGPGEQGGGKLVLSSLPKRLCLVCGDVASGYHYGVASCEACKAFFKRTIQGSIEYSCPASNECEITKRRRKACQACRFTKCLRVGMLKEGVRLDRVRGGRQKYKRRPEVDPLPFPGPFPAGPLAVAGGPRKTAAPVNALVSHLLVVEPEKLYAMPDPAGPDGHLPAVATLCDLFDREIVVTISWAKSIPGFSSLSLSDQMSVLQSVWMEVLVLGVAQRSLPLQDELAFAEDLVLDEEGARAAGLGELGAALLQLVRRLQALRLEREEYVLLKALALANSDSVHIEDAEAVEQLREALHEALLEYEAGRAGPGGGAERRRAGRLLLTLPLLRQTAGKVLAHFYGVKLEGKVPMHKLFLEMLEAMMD

Variants of: B1
Conditions: with err1_human ESRRA

Variant	effect of a mutation on the interaction
L210A	decreasing interaction strength
L144A;L210A	disrupting interaction strength
L144A	decreasing interaction strength

Variants of: B1
Conditions: with err1_human ESRRA
Remark: another data set of the same source

Variant	effect of a mutation on the interaction
L210A	disrupting interaction strength
C207S	disrupting interaction strength
C207E	disrupting interaction strength
L211A	decreasing interaction strength
Y213A	disrupting interaction strength

Variants of: B1
Conditions: with err1_human ESRRA
Remark: another data set of the same source

Variant	effect of a mutation on the interaction
K212R	decreasing interaction strength

Variants of: B1
Conditions: with err1_human ESRRA
Remark: another data set of the same source

Variant	effect of a mutation on the interaction
P202A;Q203A	with no effect
R204A;R205A	disrupting interaction strength

Variants of: B1
Conditions: with err1_human ESRRA
Remark: another data set of the same source

Variant	effect of a mutation on the interaction
L144A	disrupting interaction strength
